Measured values as given in patent publication US20150344570A1 (published 2015).

T1: FcγRIIa H (human, UniProt P12318 34-217)
T1 construct: extracellular domain; also called FcγRIIa type H; 2aH
T1 sequence (looked up): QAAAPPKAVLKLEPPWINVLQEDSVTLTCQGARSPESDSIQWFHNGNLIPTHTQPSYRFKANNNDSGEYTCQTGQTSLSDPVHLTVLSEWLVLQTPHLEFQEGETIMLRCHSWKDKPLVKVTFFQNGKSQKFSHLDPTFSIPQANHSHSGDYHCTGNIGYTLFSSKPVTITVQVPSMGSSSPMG

T2: FcγRIIb (human, UniProt P31994 43-217)
T2 construct: extracellular domain; also called 2b; FcgRIIb
T2 sequence (looked up): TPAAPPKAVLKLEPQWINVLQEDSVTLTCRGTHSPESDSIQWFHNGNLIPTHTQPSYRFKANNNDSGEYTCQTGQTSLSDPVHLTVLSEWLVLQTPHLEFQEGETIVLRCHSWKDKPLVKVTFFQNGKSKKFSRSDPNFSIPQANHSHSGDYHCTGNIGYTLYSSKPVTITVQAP


Assays:
FcγRIIa H [1] = biological target: T1, FcγRIIa H; assay: SPR (Biacore), captured antibody, FcγR as analyte; GpH7-A5/GpH7-B3/GpL16-k0 = 100
Description: (§1) The heterodimerized antibodies He Abs in which one of the H chains was introduced with an alteration were assayed for their binding activities to each activating FcγR and inhibitory FcγR according to the method described in Example 4. […] The activating FcγRs in FIGS. 26, 27, 28, and 29 are FcγRIa, FcγRIIa (R), FcγRIIa (H), and FcγRIIIa, respectively.
(§2) Analysis of interaction between objective antibody and the FcγR was carried out using Biacore T100 (GE Healthcare). HBS-EP+ (GE Healthcare) was used as the running buffer, and the measurement temperature was set to 25° C. Chips produced by immobilizing the antigen peptide by the amine coupling method to a Series S Sencor Chip CM5 (GE Healthcare), or alternatively, chips produced by allowing preliminarily biotinylated antigen peptides to interact with and immobilize onto a Series S Sensor Chip SA (certified) (GE Healthcare) were used. Antibodies of interest were captured onto an antigen peptide-immobilized chip, and allowed to interact to each FcγR diluted with running buffer. To regenerate and repeatedly use the chip, the antibodies captured on the chip were washed off by reacting 10 mM glycine-HCl, pH 1.5.

FcγRIIb = biological target: T2, FcγRIIb; assay: as above
Description: as §1, §2

FcγRIIa H [2] = biological target: T1, FcγRIIa H; assay: ratio of He/Con_2aH to He/Con_2b (FcγRIIb); SPR

| Binder | He/Con_2aH (relative binding) (FcγRIIa H [1]) [%] | He/Con_2b (relative binding) (FcγRIIb) [%] | He_2aH/2b (IIaH/IIb ratio) (FcγRIIa H [2]) |
| --- | --- | --- | --- |
| GpH7-A5/GpH7-B3 variant Q295_20W/GpL16-k0 (antibody, human IgG1, kappa, Heterodimerized anti-glypican-3 IgG1 (He Ab); mutation in the B3 H chain only; also called He Ab) heavy 1: not shown heavy 2: not shown light: DIVMTQSPLSLPVTPGEPASISCQASESLVHSNRNTYLHWYLQKPGQSPQLLIYKVSNRFSGVPDRFSGSGSGTDFTLKISRVEAEDVGVYYCSQNTHVPPTFGQGTKVEIERTVAAPSVFIFPPSDEQLKSGTASVVCLLNNFYPREAKVQWKVDNALQSGNSQESVTEQDSKDSTYSLSSTLTLSKADYEKHKVYACEVTHQGLSSPVTKSFNRGEC | 55.6 | 44.4 | 1.25 |
| GpH7-A5/GpH7-B3 variant S298_03V/GpL16-k0 (antibody, human IgG1, kappa, Heterodimerized anti-glypican-3 IgG1 (He Ab); mutation in the B3 H chain only; also called He Ab) heavy 1: not shown heavy 2: not shown light: DIVMTQSPLSLPVTPGEPASISCQASESLVHSNRNTYLHWYLQKPGQSPQLLIYKVSNRFSGVPDRFSGSGSGTDFTLKISRVEAEDVGVYYCSQNTHVPPTFGQGTKVEIERTVAAPSVFIFPPSDEQLKSGTASVVCLLNNFYPREAKVQWKVDNALQSGNSQESVTEQDSKDSTYSLSSTLTLSKADYEKHKVYACEVTHQGLSSPVTKSFNRGEC | 85.1 | 64.5 | 1.32 |
| GpH7-A5/GpH7-B3 variant S298_07I/GpL16-k0 (antibody, human IgG1, kappa, Heterodimerized anti-glypican-3 IgG1 (He Ab); mutation in the B3 H chain only; also called He Ab) heavy 1: not shown heavy 2: not shown light: DIVMTQSPLSLPVTPGEPASISCQASESLVHSNRNTYLHWYLQKPGQSPQLLIYKVSNRFSGVPDRFSGSGSGTDFTLKISRVEAEDVGVYYCSQNTHVPPTFGQGTKVEIERTVAAPSVFIFPPSDEQLKSGTASVVCLLNNFYPREAKVQWKVDNALQSGNSQESVTEQDSKDSTYSLSSTLTLSKADYEKHKVYACEVTHQGLSSPVTKSFNRGEC | 86.9 | 70.6 | 1.23 |
| GpH7-A5/GpH7-B3 variant S298_10E/GpL16-k0 (antibody, human IgG1, kappa, Heterodimerized anti-glypican-3 IgG1 (He Ab); mutation in the B3 H chain only; also called He Ab) heavy 1: not shown heavy 2: not shown light: DIVMTQSPLSLPVTPGEPASISCQASESLVHSNRNTYLHWYLQKPGQSPQLLIYKVSNRFSGVPDRFSGSGSGTDFTLKISRVEAEDVGVYYCSQNTHVPPTFGQGTKVEIERTVAAPSVFIFPPSDEQLKSGTASVVCLLNNFYPREAKVQWKVDNALQSGNSQESVTEQDSKDSTYSLSSTLTLSKADYEKHKVYACEVTHQGLSSPVTKSFNRGEC | 58 | 47.6 | 1.22 |
| GpH7-A5/GpH7-B3 variant S298_14T/GpL16-k0 (antibody, human IgG1, kappa, Heterodimerized anti-glypican-3 IgG1 (He Ab); mutation in the B3 H chain only; also called He Ab) heavy 1: not shown heavy 2: not shown light: DIVMTQSPLSLPVTPGEPASISCQASESLVHSNRNTYLHWYLQKPGQSPQLLIYKVSNRFSGVPDRFSGSGSGTDFTLKISRVEAEDVGVYYCSQNTHVPPTFGQGTKVEIERTVAAPSVFIFPPSDEQLKSGTASVVCLLNNFYPREAKVQWKVDNALQSGNSQESVTEQDSKDSTYSLSSTLTLSKADYEKHKVYACEVTHQGLSSPVTKSFNRGEC | 98.5 | 77.9 | 1.26 |
| GpH7-A5/GpH7-B3 variant S298_16H/GpL16-k0 (antibody, human IgG1, kappa, Heterodimerized anti-glypican-3 IgG1 (He Ab); mutation in the B3 H chain only; also called He Ab) heavy 1: not shown heavy 2: not shown light: DIVMTQSPLSLPVTPGEPASISCQASESLVHSNRNTYLHWYLQKPGQSPQLLIYKVSNRFSGVPDRFSGSGSGTDFTLKISRVEAEDVGVYYCSQNTHVPPTFGQGTKVEIERTVAAPSVFIFPPSDEQLKSGTASVVCLLNNFYPREAKVQWKVDNALQSGNSQESVTEQDSKDSTYSLSSTLTLSKADYEKHKVYACEVTHQGLSSPVTKSFNRGEC | 82.1 | 63.5 | 1.29 |
| GpH7-A5/GpH7-B3 variant S298_18N/GpL16-k0 (antibody, human IgG1, kappa, Heterodimerized anti-glypican-3 IgG1 (He Ab); mutation in the B3 H chain only; also called He Ab) heavy 1: not shown heavy 2: not shown light: DIVMTQSPLSLPVTPGEPASISCQASESLVHSNRNTYLHWYLQKPGQSPQLLIYKVSNRFSGVPDRFSGSGSGTDFTLKISRVEAEDVGVYYCSQNTHVPPTFGQGTKVEIERTVAAPSVFIFPPSDEQLKSGTASVVCLLNNFYPREAKVQWKVDNALQSGNSQESVTEQDSKDSTYSLSSTLTLSKADYEKHKVYACEVTHQGLSSPVTKSFNRGEC | 61.6 | 48.1 | 1.28 |
| GpH7-A5/GpH7-B3 variant S298_19Q/GpL16-k0 (antibody, human IgG1, kappa, Heterodimerized anti-glypican-3 IgG1 (He Ab); mutation in the B3 H chain only; also called He Ab) heavy 1: not shown heavy 2: not shown light: DIVMTQSPLSLPVTPGEPASISCQASESLVHSNRNTYLHWYLQKPGQSPQLLIYKVSNRFSGVPDRFSGSGSGTDFTLKISRVEAEDVGVYYCSQNTHVPPTFGQGTKVEIERTVAAPSVFIFPPSDEQLKSGTASVVCLLNNFYPREAKVQWKVDNALQSGNSQESVTEQDSKDSTYSLSSTLTLSKADYEKHKVYACEVTHQGLSSPVTKSFNRGEC | 91 | 73.3 | 1.24 |
| GpH7-A5/GpH7-B3 variant S298_20W/GpL16-k0 (antibody, human IgG1, kappa, Heterodimerized anti-glypican-3 IgG1 (He Ab); mutation in the B3 H chain only; also called He Ab) heavy 1: not shown heavy 2: not shown light: DIVMTQSPLSLPVTPGEPASISCQASESLVHSNRNTYLHWYLQKPGQSPQLLIYKVSNRFSGVPDRFSGSGSGTDFTLKISRVEAEDVGVYYCSQNTHVPPTFGQGTKVEIERTVAAPSVFIFPPSDEQLKSGTASVVCLLNNFYPREAKVQWKVDNALQSGNSQESVTEQDSKDSTYSLSSTLTLSKADYEKHKVYACEVTHQGLSSPVTKSFNRGEC | 49.9 | 41.1 | 1.21 |
| GpH7-A5/GpH7-B3 variant Y300_01G/GpL16-k0 (antibody, human IgG1, kappa, Heterodimerized anti-glypican-3 IgG1 (He Ab); mutation in the B3 H chain only; also called He Ab) heavy 1: not shown heavy 2: not shown light: DIVMTQSPLSLPVTPGEPASISCQASESLVHSNRNTYLHWYLQKPGQSPQLLIYKVSNRFSGVPDRFSGSGSGTDFTLKISRVEAEDVGVYYCSQNTHVPPTFGQGTKVEIERTVAAPSVFIFPPSDEQLKSGTASVVCLLNNFYPREAKVQWKVDNALQSGNSQESVTEQDSKDSTYSLSSTLTLSKADYEKHKVYACEVTHQGLSSPVTKSFNRGEC | 74.4 | 48.4 | 1.54 |
| GpH7-A5/GpH7-B3 variant Y300_02A/GpL16-k0 (antibody, human IgG1, kappa, Heterodimerized anti-glypican-3 IgG1 (He Ab); mutation in the B3 H chain only; also called He Ab) heavy 1: not shown heavy 2: not shown light: DIVMTQSPLSLPVTPGEPASISCQASESLVHSNRNTYLHWYLQKPGQSPQLLIYKVSNRFSGVPDRFSGSGSGTDFTLKISRVEAEDVGVYYCSQNTHVPPTFGQGTKVEIERTVAAPSVFIFPPSDEQLKSGTASVVCLLNNFYPREAKVQWKVDNALQSGNSQESVTEQDSKDSTYSLSSTLTLSKADYEKHKVYACEVTHQGLSSPVTKSFNRGEC | 93.5 | 69.2 | 1.35 |
| GpH7-A5/GpH7-B3 variant Y300_03V/GpL16-k0 (antibody, human IgG1, kappa, Heterodimerized anti-glypican-3 IgG1 (He Ab); mutation in the B3 H chain only; also called He Ab) heavy 1: not shown heavy 2: not shown light: DIVMTQSPLSLPVTPGEPASISCQASESLVHSNRNTYLHWYLQKPGQSPQLLIYKVSNRFSGVPDRFSGSGSGTDFTLKISRVEAEDVGVYYCSQNTHVPPTFGQGTKVEIERTVAAPSVFIFPPSDEQLKSGTASVVCLLNNFYPREAKVQWKVDNALQSGNSQESVTEQDSKDSTYSLSSTLTLSKADYEKHKVYACEVTHQGLSSPVTKSFNRGEC | 98 | 73.9 | 1.33 |
| GpH7-A5/GpH7-B3 variant Y300_06M/GpL16-k0 (antibody, human IgG1, kappa, Heterodimerized anti-glypican-3 IgG1 (He Ab); mutation in the B3 H chain only; also called He Ab) heavy 1: not shown heavy 2: not shown light: DIVMTQSPLSLPVTPGEPASISCQASESLVHSNRNTYLHWYLQKPGQSPQLLIYKVSNRFSGVPDRFSGSGSGTDFTLKISRVEAEDVGVYYCSQNTHVPPTFGQGTKVEIERTVAAPSVFIFPPSDEQLKSGTASVVCLLNNFYPREAKVQWKVDNALQSGNSQESVTEQDSKDSTYSLSSTLTLSKADYEKHKVYACEVTHQGLSSPVTKSFNRGEC | 105 | 84.3 | 1.24 |
| GpH7-A5/GpH7-B3 variant Y300_07I/GpL16-k0 (antibody, human IgG1, kappa, Heterodimerized anti-glypican-3 IgG1 (He Ab); mutation in the B3 H chain only; also called He Ab) heavy 1: not shown heavy 2: not shown light: DIVMTQSPLSLPVTPGEPASISCQASESLVHSNRNTYLHWYLQKPGQSPQLLIYKVSNRFSGVPDRFSGSGSGTDFTLKISRVEAEDVGVYYCSQNTHVPPTFGQGTKVEIERTVAAPSVFIFPPSDEQLKSGTASVVCLLNNFYPREAKVQWKVDNALQSGNSQESVTEQDSKDSTYSLSSTLTLSKADYEKHKVYACEVTHQGLSSPVTKSFNRGEC | 108 | 74.5 | 1.45 |
| GpH7-A5/GpH7-B3 variant Y300_08L/GpL16-k0 (antibody, human IgG1, kappa, Heterodimerized anti-glypican-3 IgG1 (He Ab); mutation in the B3 H chain only; also called He Ab) heavy 1: not shown heavy 2: not shown light: DIVMTQSPLSLPVTPGEPASISCQASESLVHSNRNTYLHWYLQKPGQSPQLLIYKVSNRFSGVPDRFSGSGSGTDFTLKISRVEAEDVGVYYCSQNTHVPPTFGQGTKVEIERTVAAPSVFIFPPSDEQLKSGTASVVCLLNNFYPREAKVQWKVDNALQSGNSQESVTEQDSKDSTYSLSSTLTLSKADYEKHKVYACEVTHQGLSSPVTKSFNRGEC | 108 | 73.6 | 1.47 |
| GpH7-A5/GpH7-B3 variant Y300_11K/GpL16-k0 (antibody, human IgG1, kappa, Heterodimerized anti-glypican-3 IgG1 (He Ab); mutation in the B3 H chain only; also called He Ab) heavy 1: not shown heavy 2: not shown light: DIVMTQSPLSLPVTPGEPASISCQASESLVHSNRNTYLHWYLQKPGQSPQLLIYKVSNRFSGVPDRFSGSGSGTDFTLKISRVEAEDVGVYYCSQNTHVPPTFGQGTKVEIERTVAAPSVFIFPPSDEQLKSGTASVVCLLNNFYPREAKVQWKVDNALQSGNSQESVTEQDSKDSTYSLSSTLTLSKADYEKHKVYACEVTHQGLSSPVTKSFNRGEC | 66.9 | 51.6 | 1.3 |
